Assay [1] concerns the target T1, 人PD-1抗原 (ACRO, Cat.PD-1-H5221) (human, UniProt Q15116 25-167).
T1 construct: Bought antigen coated on ELISA plates; also called human PD-1 antigen; hPD-1
Nature of the assay: indirect ELISA, human PD-1 coated. On the technique in general: An ELISA detects its analyte on a solid surface through an enzyme-linked reagent.

For assay [2], the target named is T2, 人PD-1抗原 on Jurkat/PD-1 cells (human, UniProt Q15116 25-288).
T2 construct: whole, on cells; Used for the flow cytometry cells and for the Jurkat reporter cells that carry PD-1; also called 过表达人PD-1抗原的Jurkat细胞; Jurkat/hPD-1 NFAT-Luciferase
T2 sequence (Q15116 25-288): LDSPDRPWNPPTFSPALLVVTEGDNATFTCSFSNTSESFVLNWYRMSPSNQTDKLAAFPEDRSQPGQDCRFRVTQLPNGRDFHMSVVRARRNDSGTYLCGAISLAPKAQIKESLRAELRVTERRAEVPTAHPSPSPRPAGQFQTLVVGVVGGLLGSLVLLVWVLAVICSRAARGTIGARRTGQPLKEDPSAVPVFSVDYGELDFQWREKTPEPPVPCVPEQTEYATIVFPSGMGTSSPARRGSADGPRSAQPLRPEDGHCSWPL
Nature of the assay: indirect flow cytometry on Jurkat/PD-1 cells. On the technique in general: In flow cytometry, cells or beads pass a laser one at a time.

T1 sequence (Q15116 25-167 limits assumed): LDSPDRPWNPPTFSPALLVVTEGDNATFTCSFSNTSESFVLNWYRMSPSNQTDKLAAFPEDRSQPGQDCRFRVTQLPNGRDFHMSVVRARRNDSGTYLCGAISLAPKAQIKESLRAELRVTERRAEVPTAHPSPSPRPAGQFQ

B1: hmp12 (antibody, V domains shown)
VH: EVQLVESGGGLVKPGGSLRLSCAASGFTFSSYDMSWVRQAPGKGLEWVATISGGGSYTYYADSVKGRFTISRDNAKNSLYLQMNSLRAEDTALYYCASPYAGYFDVWGQGTMVTVSS
VL: DIQMTQSPSSLSASVGDRVTITCSASSSISSNYLHWYQQKPGKAPKLLIYRTSNLQSGVPARFSGSGSGTSYSLTISSLQPEDFATYYCQQGSSIPLTFGQGTKLEIK
notes: also called 人源化抗体hmp12
For B1, the binding result in assay [1] and in assay [2] was “binds” each time.

The values above are taken from patent CN113234160A (GUANGZHOU EXCELMAB BIOMEDICAL TECH CO LTD, dated 2021).
